Test system: CC(=O)N[C@H]1[C@H](Oc2ccc([N+](=O)[O-])cc2)O[C@H](CO)[C@@H](O[C@@H]2O[C@H](CO)[C@@H](O)[C@H](O)[C@H]2NC(C)=O)[C@@H]1O
Assay: purified protein
Format: biochemical, Clostridium paraputrificum
Details: 0.1 M citric acid-potassium phosphate pH 5.5, 37 °C

Substance | Km (native enzyme) | kcat (native enzyme) | Km (no added compound) | kcat (no added compound)
crChit62J4 (crude/isolated Chit62J4) (Clostridium paraputrificum) | 570 µM | 13.5 s⁻¹ | – | –
rChit62J4 (Clostridium paraputrificum) | – | – | 240 ± 20 µM | 31.5 ± 0.9 s⁻¹
rChit62J4cat (Clostridium paraputrificum) | – | – | 190 ± 20 µM | 31.4 ± 0.8 s⁻¹

From publication PMC8512545, “Chitinase Chit62J4 Essential for Chitin Processing by Human Microbiome Bacterium Clostridium paraputrificum J4” (Molecules, 2021)
